From PMC5424160, “Menin enhances c-Myc-mediated transcription to promote cancer progression” (Nature Communications, 2017) come the findings set out here.

The target in the test is T1, GST-CycT1 (UniProt O60563 1-726).
T1 construct: Cyclin T1, cDNA cloned into pGEX-4T-1; also called GST fused CycT1 protein; source: Escherichia coli (DE3), purified
As to the kind of experiment: pull-down; GST pull-down: purified GST fused protein as bait and purified His-tag protein; pull-down buffer 150 mM NaCl, 50 mM Tris pH 7.5, 0.1% NP-40, 5 mM DTT; western blot. Conditions: both partners purified. On the technique in general: A western blot detects proteins with antibodies after separation by electrophoresis.

T1 sequence (O60563 whole entry, the tested form may be a part): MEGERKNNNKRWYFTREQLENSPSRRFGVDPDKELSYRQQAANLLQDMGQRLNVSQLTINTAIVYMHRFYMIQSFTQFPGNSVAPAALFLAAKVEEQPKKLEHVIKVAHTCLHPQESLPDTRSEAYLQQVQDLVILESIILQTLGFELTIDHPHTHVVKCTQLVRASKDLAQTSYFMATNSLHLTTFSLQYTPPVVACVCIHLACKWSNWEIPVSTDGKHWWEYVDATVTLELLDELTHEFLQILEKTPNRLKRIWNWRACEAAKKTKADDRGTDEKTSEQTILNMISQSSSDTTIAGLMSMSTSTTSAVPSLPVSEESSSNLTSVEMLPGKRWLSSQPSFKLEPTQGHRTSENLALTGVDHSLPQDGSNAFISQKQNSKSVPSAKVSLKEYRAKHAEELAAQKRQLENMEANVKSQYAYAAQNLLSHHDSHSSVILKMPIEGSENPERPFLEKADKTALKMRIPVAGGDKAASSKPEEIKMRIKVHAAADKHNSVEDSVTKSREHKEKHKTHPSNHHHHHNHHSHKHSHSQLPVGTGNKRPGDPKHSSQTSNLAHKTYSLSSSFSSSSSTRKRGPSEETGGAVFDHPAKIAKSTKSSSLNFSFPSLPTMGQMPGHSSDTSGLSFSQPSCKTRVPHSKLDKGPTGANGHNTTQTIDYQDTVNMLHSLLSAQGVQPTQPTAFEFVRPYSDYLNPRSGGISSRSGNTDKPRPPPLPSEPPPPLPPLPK

B1: His-Menin (natural protein, UniProt O00255 1-610, looked up)
chain: MGLKAAQKTLFPLRSIDDVVRLFAAELGREEPDLVLLSLVLGFVEHFLAVNRVIPTNVPELTFQPSPAPDPPGGLTYFPVADLSIIAALYARFTAQIRGAVDLSLYPREGGVSSRELVKKVSDVIWNSLSRSYFKDRAHIQSLFSFITGTKLDSSGVAFAVVGACQALGLRDVHLALSEDHAWVVFGPNGEQTAEVTWHGKGNEDRRGQTVNAGVAERSWLYLKGSYMRCDRKMEVAFMVCAINPSIDLHTDSLELLQLQQKLLWLLYDLGHLERYPMALGNLADLEELEPTPGRPDPLTLYHKGIASAKTYYRDEHIYPYMYLAGYHCRNRNVREALQAWADTATVIQDYNYCREDEEIYKEFFEVANDVIPNLLKEAASLLEAGEERPGEQSQGTQSQGSALQDPECFAHLLRFYDGICKWEEGSPTPVLHVGWATFLVQSLGRFEGQVRQKVRIVSREAEAAEAEEPWGEEAREGRRRGPRRESKPEEPPPPKKPALDKGLGTGQGAVSGPPRKPPGTVAGTARGPEGGSTAQVPAPTASPPPEGPVLTFQSEKMKGMKELLVATKINSSAIKLQLTAQSQVQMKKQKVSTPSDYTLSFLKRQRKGL
notes: Menin, MEN1 cDNA cloned into pET-22b (+); also called His-tagged Menin protein; recombinant His-Menin protein; source: Escherichia coli (DE3), purified
On to B1, for which the binding result is listed as “binds”.
